B1: Compound 87 (peptide)
peptide: H-DTHFPCIIFGPRARGWVCK-NH2
modifications: not fully specified (bridges); printed as Hy-DTHFPCIIFGPRARGWVCK-NH2; cysteine pairing not given here
B2: Compound 79 (peptide)
peptide: H-DTHF[β3hP]CIIFGPRSRGWVCK-NH2
modifications: not fully specified (bridges); printed as Hy-DTHF[bh-Pro]-CIIFGPRSRGWVCK-NH2; cysteine pairing not given here
B3: Compound 110 (peptide)
peptide: [Ida]THFPCIIFGPRSRGWVCK-NH2
modifications: not fully specified (bridges); printed as [Ida]-THFPCIIFGPRSRGWVCK-NH2; cysteine pairing not given here
B4: Compound 101 (peptide)
peptide: H-DTHFPCISFGPRSKGWVCK-NH2
modifications: not fully specified (bridges); printed as Hy-DTHFPCISFGPRSKGWVCK-NH2; cysteine pairing not given here
B5: Compound 86 (peptide)
peptide: H-DTHFPCIIFGPRSKGWVCK-NH2
modifications: not fully specified (bridges); printed as Hy-DTHFPCIIFGPRSKGWVCK-NH2; cysteine pairing not given here
B6: Compound 84 (peptide)
peptide: H-DTHFPCIIFGPRSRGVCK-NH2
modifications: not fully specified (bridges); printed as Hy-DTHFPCIIFGPRSRGVCK-NH2; cysteine pairing not given here
B7: Compound 89 (peptide)
peptide: {Palmitoyl-PEG11′}-DTHFPCIIFGPRSRGWVCK-NH2
modifications: not fully specified (bridges); printed as Palm-PEG11-DTHFPCIIFGPRSRGWVCK-NH2; cysteine pairing not given here
B8: Compound 102 (peptide)
peptide: H-DTHFPCIKFGPRSKGWVCK-NH2
modifications: not fully specified (bridges); printed as Hy-DTHFPCIKFGPRSKGWVCK-NH2; cysteine pairing not given here
B9: Compound 103 (peptide)
peptide: H-EDTHFPCIIFGPRSKGWVCK-NH2
modifications: not fully specified (bridges); printed as Hy-EDTHFPCIIFGPRSKGWVCK-NH2; cysteine pairing not given here
B10: Compound 85 (peptide)
peptide: H-DTHFPCIYFGPRSKGWVCK-NH2
modifications: not fully specified (bridges); printed as Hy-DTHFPCIYFGPRSKGWVCK-NH2; cysteine pairing not given here

Results on 35 molecules are retold here after US20250340608A1 (PROTAGONIST THERAPEUTICS, published 2025).

Numbered stars: 1 amine (or outer) side, 2 acyl side, 3 side chain; on linkers, the order of the positions; unused ones are H or OH. Square brackets hold non-standard residues; d marks the D form. Primed or numbered codes have the meaning given here. Ends that are not written are not given here. * marks the point of attachment. Ida = iminodiacetic acid, O=C(CN(CC(=O)[*:3])[*:1])[*:2]; PEG8′ = PEG8 conjugated to the Lys side chain; Palmitoyl = CCCCCCCCCCCCCCCC(=O)*; β3hP = O=C(O)C[C@@H]1CCCN1; Isovaleryl = CC(C)CC(=O)*; PEG11′ = not defined here; Isobutyryl = CC(C)C(=O)*; Octanoyl = CCCCCCCC(=O)*

In this assay the target is T1, human ferroportin (SLC40A1) fused in frame with GFP, stably expressed in HEK293 cells (human, UniProt Q9NP59 1-571).
T1 sequence (looked up): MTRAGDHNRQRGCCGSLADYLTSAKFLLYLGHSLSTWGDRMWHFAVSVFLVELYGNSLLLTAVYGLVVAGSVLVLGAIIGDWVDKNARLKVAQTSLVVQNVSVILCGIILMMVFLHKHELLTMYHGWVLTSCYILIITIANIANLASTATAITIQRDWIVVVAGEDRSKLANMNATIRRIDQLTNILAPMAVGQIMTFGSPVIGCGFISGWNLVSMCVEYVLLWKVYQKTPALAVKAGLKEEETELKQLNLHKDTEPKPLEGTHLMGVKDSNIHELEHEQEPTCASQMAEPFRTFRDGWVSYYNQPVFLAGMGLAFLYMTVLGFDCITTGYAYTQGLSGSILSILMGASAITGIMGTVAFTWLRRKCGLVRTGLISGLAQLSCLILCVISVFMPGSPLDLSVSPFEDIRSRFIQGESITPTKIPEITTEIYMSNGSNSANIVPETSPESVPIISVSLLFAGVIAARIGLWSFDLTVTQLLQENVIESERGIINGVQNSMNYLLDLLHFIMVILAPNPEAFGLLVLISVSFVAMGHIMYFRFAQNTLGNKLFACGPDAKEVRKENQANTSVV
The experiment in a line: cell-based or functional assay.
In the case of B1, the “Potency EC50 (nM)” value is > 1000 nM. On to Isovaleryl-DTHFPCIIFGPRSKGWCK-NH2 (not fully specified (bridges); cysteine pairing not given here) [Compound 113], for which the “Potency EC50” value was found to be 15 nM. Same read-out and setting: the same measure for H-DTHFPCIKFGPRSKGWVCM-NH2 (cysteine pairing not given here) [Compound 136]: 669 nM; for Isovaleryl-DTHFPCIIFEPRSKGWVCK-NH2 (not fully specified (bridges); cysteine pairing not given here) [Compound 105]: 10 nM. H-DTHFPCIIFGPRSRGWRCK-NH2 (cysteine pairing not given here) [Compound 80]: the “Potency EC50 (nM)” value is > 1000 nM. Still for that read-out and setting: the same measure for B2: > 1000 nM.

Turning to B3, the “Potency EC50” value was > 300 nM.

For the molecule Isovaleryl-DTHFPCIKFGPKSKGWVCK-NH2 (not fully specified (bridges); cysteine pairing not given here) [Compound 112], the “Potency EC50” value amounted to 15 nM. Turning to {Isobutyryl-PEG11′}-DTHFPCIIFGPRSRGWVCK-NH2 (not fully specified (bridges); cysteine pairing not given here) [Compound 109], the “Potency EC50 (nM)” value was > 1000 nM. On the same count and under the same terms, the same measure for H-DTHFPCIRFGPRSRGWVCK-NH2 (cysteine pairing not given here) [Compound 81]: > 1000 nM. In the case of Isovaleryl-DTHFPCIK(PEG8′)FGPRSKGWVCK-NH2 (cysteine pairing not given here) [Compound 149], the “Potency EC50” value was determined as 9 nM.

With Isovaleryl-DTHFPCIIFGPRSKGWVCKK-NH2 (cysteine pairing not given here) [Compound 145], the “Potency EC50” value amounted to 9 nM.

As for H-EDTHFPCIIFGPRSKGWVCM-NH2 (cysteine pairing not given here) [Compound 137], the “Potency EC50” value was 873 nM. Take Isovaleryl-HFPCIIFGPRSKGWVCM-NH2 (cysteine pairing not given here) [Compound 134]: the “Potency EC50 (nM)” value was > 1000 nM.

In the case of H-THFPCIIFGPRSKGWVCM-NH2 (cysteine pairing not given here) [Compound 132], the “Potency EC50 (nM)” value is > 1000 nM. Still for that read-out and setting: the same measure for {Octanoic acid-PEG11′}-DTHFPCIIFGPRSRGWVCK-NH2 (not fully specified (bridges); cysteine pairing not given here) [Compound 108]: > 1000 nM. With H-HFPCIIFGPRSKGWVCM-NH2 (cysteine pairing not given here) [Compound 133], the “Potency EC50 (nM)” value is > 1000 nM. For the molecule Isovaleryl-DTHFSCIIFGPRSKGWVCK-NH2 (not fully specified (bridges); cysteine pairing not given here) [Compound 107], the “Potency EC50” value was 50 nM. Same read-out and setting: the same measure for DTHFPCIKFKPRSKGWVCK (N-terminal isovaleric acid; PEG8 on side chain of Lys 10; C-terminal amide) [Compound 150]: 7 nM. Regarding H-DTHFPCIRFGPRSRGWRCK-NH2 (cysteine pairing not given here) [Compound 82], the “Potency EC50 (nM)” value was > 1000 nM. The same measure, in the same setting: the value for B4 was > 1000 nM. Consider Isovaleryl-DTHFPCIIFEPRSKGWVCK-NH2 (cysteine pairing not given here) [Compound 142], for which the “Potency EC50” value came to 9 nM. For B5, the “Potency EC50 (nM)” value is > 1000 nM. On the same count and under the same terms, the value for Isovaleryl-DTHFKCIEFGPRSKGWVCK-NH2 (cysteine pairing not given here) [Compound 140] was > 1000 nM. On to B6, for which the “Potency EC50 (nM)” value was > 1000 nM. Still for that read-out and setting: the same measure for B7: > 1000 nM. With Isovaleryl-DTKFPCIIFGPRSKGWVCK-NH2 (cysteine pairing not given here) [Compound 147], the “Potency EC50” value was 20 nM. Still for that read-out and setting: the value for Isovaleryl-DTHFPCIIFGPRSKGVC-NH2 (not fully specified (bridges); cysteine pairing not given here) [Compound 114] was 18 nM. Take B8: the “Potency EC50 (nM)” value is > 1000 nM. H-DTHFPCISFGPRSKGWVCM-NH2 (cysteine pairing not given here) [Compound 135]: the “Potency EC50” value was determined as 545 nM. Regarding H-DTHFPCIIFGPRSRGWVCK-NH2 (cysteine pairing not given here) [Compound 83], the “Potency EC50 (nM)” value was > 1000 nM. With B9, the “Potency EC50 (nM)” value is > 1000 nM.

Regarding Octanoyl-DTHFPCIIFGPRSRGWVCK-NH2 (not fully specified (bridges); cysteine pairing not given here) [Compound 88], the “Potency EC50 (nM)” value is > 1000 nM. With Isovaleryl-DTHFPCIIFEPRSKGWVCKKKK-NH2 (cysteine pairing not given here) [Compound 144], the “Potency EC50” value was determined as 15 nM. For B10, the “Potency EC50” value is 705 nM.
